Experimental data taken from patent publication US20110060580A1 (published 2011).
Each block holds one binder with its values, some of them ahead of it.

B1: human LXRβ-LBD (liver X receptor beta ligand binding domain, amino acids 213-461 of Seq. Id. No. 1) (receptor)
chain: GEGEGVQLTAAQELMIQQLVAAQLQCNKRSFSDQPKVTPWPLGADPQSRDARQQRFAHFTELAIISVQEIVDFAKQVPGFLQLGREDQIALLKASTIEIMLLETARRYNHETECITFLKDFTYSKDDFHRAGLQVEFINPIFEFSRAMRRLGLDDAEYALLIAINIFSADRPNVQEPGRVEALQQPYVEALLSYTRIKRPQDQLRFPRMLMKLVSLRTLSSVHSEQVFALRLQDKKLPPLLSEIWDVHE
notes: The His tag was removed by thrombin before crystallization; Id; No. 1; Each crystal also held a small-molecule agonist; also called LXR-LBD; hLXRbeta213G-460E

Columns and labels:
[1] = target: B1; assay: X-ray co-crystal structure (Example 3, space group P1)
Procedure: Protein used for crystallization of LXRβ-LBD together with - (R,S)-Benzenesulfonyl-(6chloro-2,3,4,9-tetrahydro-1H-carbazol-2-yl)-fluoro-acetic acid methyl ester has been purified as described above. The protein was incubated with ligand in a 15-fold molar excess for 2 hours at room temperature. A short co-activator peptide ([…]) (Seq. Id. No. 4) from SRC-1 was added in 3-fold molar excess and incubation continued overnight at 4 ° C. Prior to crystallization experiments the protein was concentrated to 12 mg/ml and centrifuged at 20000 ×g. The crystallization droplet was set up at room temperature by mixing 1.5 μl of protein solution with 0.5 μl reservoir solution in vapour diffusion hanging drop experiments. Crystals appeared out of 0.1 M Bis-Tris pH 5.5, 0.2 M (NH⁴⁾²SO₄, 25% PEG 3350 after 1 day and grew to final size of 0.2 mm×0.1 mm×0.05 mm within 2 days.
Crystals were harvested with paraffin oil as cryoprotectant and then flash frozen in a 100 K N₂ stream. Diffraction images were collected at a temperature of 100 K at the beamline X06SA of the Swiss Light Source and processed with the programs DENZO and […] yielding data to a resolution of 2.3 Å. Standard crystallographic programs from the CCP4 software suite were used to determine the structure by molecular replacement using an in-house LXR-LBD structure as search model. […]

[2] = target: B1; assay: X-ray co-crystal structure (Example 1, space group P43)
Procedure: (§1) Protein used for crystallization of LXRβ-LBD together with 2-(4-{[2-(3-Chloro-phenyl)-5-methyl-oxazol-4-ylmethyl]-ethyl-amino }-phenyl)-1,1,1,3,3,3-hexafluoro-propan-2-ol has been purified as described above. The protein was incubated with ligand in a 12-fold molar excess for 2 hours at room temperature. A short co-activator peptide ([…]) (Seq. Id. No. 3) from SRC-1 was added in 12-fold molar excess and incubation continued overnight at 4 ° C. Prior to crystallization experiments the protein was centrifuged at 20000× g. The crystallization droplets were set up at 22 ° C. by mixing 1.5 μl of protein solution with 0.5 μl reservoir solution in vapour diffusion hanging drop experiments. Crystals appeared out of 0.2 M (NH₄)₂SO₄, 25% PEG 3350 after 1 day and grew to final size of 0.15 mm×0.15 mm×0.05 mm within 2 days.
(§2) Crystals were harvested with paraffin oil as cryoprotectant and then flash frozen in a 100 K N2 stream. Diffraction images were collected at a temperature of 100 K at the beamline X06SA of the Swiss Light Source and processed with the programs DENZO and […] yielding data to a resolution of 3.2 Å. Standard crystallographic programs from the CCP4 software suite were used to determine the structure by molecular replacement using an in-house LXRβ-LBD structure as search model. Refinement and model building cycles were performed with REFMAC and MOLOC, respectively (Table 1).

[3] = target: the molecule itself; assay: X-ray co-crystal structure (Example 1); homodimer
Procedure: as §1, §2

binding result [1]: binds
Binder: ERHKILHRLLQEG (13-residue peptide from SRC-1) [short co-activator peptide (ERHKILHRLLQEG) (Seq. Id. No. 4) from SRC-1]

binding result [2]: binds
Binder: KDHQLLRYLLDKD (13-residue peptide from SRC-1) [short co-activator peptide (KDHQLLRYLLDKD) (Seq. Id. No. 3) from SRC-1]

Binder: B1
binding result [3]: binds
